Molecular target: VEGF (HZ-1038, Proteintech) (UniProt P15692-4 27-191)
Assay: MST; strongest of V4-V6; Kd only in figure; 20 mM CaCl2; MST: 5 nM Cy5-LYTAC, 20 mM Tris-HCl pH 8.5, 20 mM KCl, 20 mM CaCl2, 0.1% Tween 20, 10 min, temperature not stated; pulldown: cell lysate with LYTAC in DPBS-Mg
Settings: protein: commercial; chain copies: 2; biotin implied in pulldown; 23-bp linker duplex formed by both 5' ends, 3' single-stranded aptamer tails

Sequence of VEGF (HZ-1038, Proteintech) (P15692 other isoform, or with tags, fused parts or gaps): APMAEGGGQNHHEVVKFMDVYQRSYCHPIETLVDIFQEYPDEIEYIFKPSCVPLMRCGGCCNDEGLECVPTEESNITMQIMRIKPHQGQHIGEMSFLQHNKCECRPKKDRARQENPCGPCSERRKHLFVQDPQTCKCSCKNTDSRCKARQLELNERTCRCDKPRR

B1: V5 (M6PR-A / VEGF-A2 LYTAC) (mixed)
DNA 1: CCCCCACACGTAAATCAGTCATAGGGCGCGTAGATGACGAGCAGTCCTAACATCGTTTAGGAC
DNA 2: TATGACTGATTTACGTGTGGGGGTGTGGGGGTGGACGGGCCGGGTAGA
modifications: 5'-phosphate on strand 1 (T4 DNA ligase step stated)
B1: binds.

Reference: article PMC11388081, “Targeted degradation of VEGF with bispecific aptamer-based LYTACs ameliorates pathological retinal angiogenesis”
